Patent US20150139990A1 (DAINIPPON SUMITOMO PHARMA, published 2015)

How the values were obtained:
Test in all cases: ELISA
[1] = biological target: T1, h138c human-chicken CD81 chimera (human; chicken)
T1 construct: as m30; not shown: C-terminal V5 and 6xHis tags
T1 chain: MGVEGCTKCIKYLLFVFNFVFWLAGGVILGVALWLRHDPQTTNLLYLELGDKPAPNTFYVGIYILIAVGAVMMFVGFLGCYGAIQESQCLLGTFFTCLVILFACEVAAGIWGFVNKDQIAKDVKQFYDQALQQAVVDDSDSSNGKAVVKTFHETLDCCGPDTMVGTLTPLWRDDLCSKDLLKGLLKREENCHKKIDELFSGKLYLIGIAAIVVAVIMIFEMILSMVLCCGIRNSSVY
Protocol: (§1) To identify the epitopes to which each of the anti-human CD81 antibodies (002-A07 and 005-001) bind, ELISA assays were performed using human-chicken CD81 chimera constructs listed in Table 6. Each construct was transiently expressed in CHO cells and its cell membrane fraction was solubilized with detergents and immobilized onto a plate.
(§2) As control antibodies, human IgG4 antibody (Acris Antibodies GmbH) and mouse IgG antibody were used. Human-chicken chimera protein was captured via His tag introduced into the C-terminal by adding the membrane fraction (5 μg/100 μL/well) prepared (1) above to Ni NTA His Sorb plate (QIAGEN) in the presence of 1% (w/v) n-Octylglucoside and incubating for 3 hours at 4° C. After washing with TBST (TBS, 0.05% (v/v) Tween 20) three times, an anti-human CD81 antibody or a control antibody (50 μL/well) was added and incubated for 1 hour at room temperature (RT). After washing, 2000 fold-diluted HRP-labeled anti-human IgG4 antibody (Mouse anti-human IgG₄ HRP clone:HP6023 Beckman Coulter) or 1000 fold-diluted HRP-labeled anti-mouse IgG antibody (Invitrogen) (50 μL/well) were added. The plate was incubated for 1 hour at RT and washed with TBST three times. And then, peroxidase activity was determined by TMB One solution (Promega; Code 53025). The reaction was stopped with 2 M H₂SO₄ (50 μL) and absorbance at 450 nm was measured.

[2] = biological target: T2, c175h human-chicken CD81 chimera (chicken; human)
T2 construct: as m30; not shown: C-terminal V5 and 6xHis tags
T2 chain: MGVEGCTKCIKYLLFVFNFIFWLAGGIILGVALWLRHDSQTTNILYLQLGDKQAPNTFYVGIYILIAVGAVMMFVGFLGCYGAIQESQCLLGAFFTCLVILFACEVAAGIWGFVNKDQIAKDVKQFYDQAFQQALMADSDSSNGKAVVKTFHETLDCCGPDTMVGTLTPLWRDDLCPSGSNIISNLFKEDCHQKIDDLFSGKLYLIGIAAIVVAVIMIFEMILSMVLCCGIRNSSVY
Protocol: as §1, §2

[3] = biological target: T3, c80h human-chicken CD81 chimera (chicken; human, UniProt P60033 1-236)
T3 construct: as m30; not shown: C-terminal V5 and 6xHis tags
T3 chain: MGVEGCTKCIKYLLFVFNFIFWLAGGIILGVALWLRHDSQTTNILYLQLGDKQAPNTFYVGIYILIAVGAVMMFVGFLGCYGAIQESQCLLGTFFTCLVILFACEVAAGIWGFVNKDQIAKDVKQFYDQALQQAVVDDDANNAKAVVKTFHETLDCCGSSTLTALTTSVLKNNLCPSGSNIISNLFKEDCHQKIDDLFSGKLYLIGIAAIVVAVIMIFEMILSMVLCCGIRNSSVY
Protocol: as §1, §2

[4] = biological target: T4, h80c human-chicken CD81 chimera (human; chicken)
T4 construct: as m30; not shown: C-terminal V5 and 6xHis tags
T4 chain: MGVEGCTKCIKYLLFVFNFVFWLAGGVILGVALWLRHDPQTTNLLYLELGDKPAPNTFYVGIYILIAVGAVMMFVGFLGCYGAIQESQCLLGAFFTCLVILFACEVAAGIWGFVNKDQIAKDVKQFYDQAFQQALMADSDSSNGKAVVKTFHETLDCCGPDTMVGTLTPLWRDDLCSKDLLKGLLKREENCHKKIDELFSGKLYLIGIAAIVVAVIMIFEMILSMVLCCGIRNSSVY
Protocol: as §1, §2

[5] = biological target: T5, h190c human-chicken CD81 chimera (human; chicken, UniProt P60033 1-236)
T5 construct: as m30; not shown: C-terminal V5 and 6xHis tags
T5 chain: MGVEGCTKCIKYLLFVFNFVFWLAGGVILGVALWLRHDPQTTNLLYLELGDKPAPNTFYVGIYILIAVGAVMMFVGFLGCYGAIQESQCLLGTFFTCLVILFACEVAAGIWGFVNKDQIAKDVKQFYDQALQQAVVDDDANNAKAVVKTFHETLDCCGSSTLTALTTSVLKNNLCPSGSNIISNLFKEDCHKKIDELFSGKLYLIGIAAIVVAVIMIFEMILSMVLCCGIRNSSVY
Protocol: as §1, §2

[6] = biological target: T6, cCD81 (chicken CD81 construct with C-terminal V5 and 6xHis tags) (chicken)
T6 construct: as m30; not shown: C-terminal V5 and 6xHis tags
T6 chain: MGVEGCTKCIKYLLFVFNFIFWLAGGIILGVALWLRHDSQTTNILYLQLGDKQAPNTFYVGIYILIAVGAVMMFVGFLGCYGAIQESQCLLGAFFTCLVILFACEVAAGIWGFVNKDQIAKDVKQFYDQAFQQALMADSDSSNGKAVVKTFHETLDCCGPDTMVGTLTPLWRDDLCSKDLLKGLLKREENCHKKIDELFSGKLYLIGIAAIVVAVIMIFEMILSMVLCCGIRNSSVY
Protocol: as §1, §2

[7] = biological target: T7, h156c human-chicken CD81 chimera (human; chicken)
T7 construct: as m30; not shown: C-terminal V5 and 6xHis tags
T7 chain: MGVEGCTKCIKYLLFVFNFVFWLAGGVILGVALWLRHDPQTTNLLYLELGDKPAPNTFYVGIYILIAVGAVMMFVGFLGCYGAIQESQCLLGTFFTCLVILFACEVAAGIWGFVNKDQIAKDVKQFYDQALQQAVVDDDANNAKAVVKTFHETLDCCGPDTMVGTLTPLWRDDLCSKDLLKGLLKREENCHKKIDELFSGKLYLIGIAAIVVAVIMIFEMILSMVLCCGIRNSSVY
Protocol: as §1, §2

B1: 002-A07 IgG4 antibody (antibody)
heavy: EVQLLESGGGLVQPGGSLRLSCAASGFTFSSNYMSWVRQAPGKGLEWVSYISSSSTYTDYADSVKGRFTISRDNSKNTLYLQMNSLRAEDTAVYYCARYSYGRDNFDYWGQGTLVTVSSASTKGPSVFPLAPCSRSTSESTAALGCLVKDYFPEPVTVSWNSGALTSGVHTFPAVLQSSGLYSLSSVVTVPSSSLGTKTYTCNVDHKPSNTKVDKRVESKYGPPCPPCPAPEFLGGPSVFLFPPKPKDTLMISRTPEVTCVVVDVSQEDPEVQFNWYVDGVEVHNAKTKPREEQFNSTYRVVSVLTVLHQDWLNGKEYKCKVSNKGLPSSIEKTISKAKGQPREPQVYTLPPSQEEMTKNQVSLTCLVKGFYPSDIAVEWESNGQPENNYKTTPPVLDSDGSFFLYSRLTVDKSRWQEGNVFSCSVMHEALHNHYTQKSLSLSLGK
light: QSVLTQPPSASGTPGQRVTISCTGSTSNIGAGYDTHWYQQLPGTAPKLLIYGNSNRPSGVPDRFSGSKSGTSASLAISGLRSEDEADYYCQSYDTNLSVWVFGGGTKLTVLGQPKAAPSVTLFPPSSEELQANKATLVCLISDFYPGAVTVAWKADSSPVKAGVETTTPSKQSNNKYAASSYLSLTPEQWKSHRSYSCQVTHEGSTVEKTVAPTECS
notes: human IgG4 S228P, lambda light chain
- absorbance at 450 nm relative to hCD81 [1]: < 10%
- absorbance at 450 nm relative to hCD81 [2]: < 10%
- binding result [3]: binds
- absorbance at 450 nm relative to hCD81 [4]: < 10%
- binding result [5]: binds
- absorbance at 450 nm relative to hCD81 [6]: < 10%
- absorbance at 450 nm relative to hCD81 [7]: < 10%
